# B1: CPEB3 Ribozyme (parent)
# chain: GGGGGCCACAGCAGAAGCGUUCACGUCGCGGCCCCUGUCAGAUUCUGGUGAAUCUGCGAAUUCUGCUGU
# Variants of: B1
# Assay: self-cleavage, relative activity (ratio to wild type); higher = more cleavage; co-transcriptional
row,Variant,self-cleavage
1,C54G G56A,0.658
2,C54G U55C,0.381
3,G56A G58U,0.994
4,C54U G65C,0.561
5,C54U G65A,0.884
6,G56A G68A,0.995
7,C57G U64A,0.349
8,C57G U64G,0.394
9,C57G U64C,0.38
10,U55A G65A,0.581
11,C54A C57G,0.338
12,C54A C57A,0.378
13,C54A C57U,0.377
14,G56U A60G,0.712
15,G56U A60U,0.293
16,G56A U61A,0.824
17,C54U C66U,0.975
18,C54U C66A,0.845
19,C54U C66G,0.837
20,G56C A59U,0.392
21,G56U U61A,0.752
22,C57G C63A,0.291
23,U55A U69A,1.02
24,U55A U69C,1.06

row,Variant,self-cleavage
1,U55G C63A,0.345
2,U55G C63G,0.399
3,C57A U69A,0.377
4,C57A U69G,0.455
5,U55A G68U,0.992
6,U55A G68A,0.942
7,C57G A59G,0.375
8,C57G A59U,0.388
9,G56C U64A,0.504
10,G56C U64C,0.637
11,C54U C57U,0.385
12,C54U C57G,0.407
13,C54U C57A,0.413
14,C54G G65A,0.663
15,C54G G65U,0.587
16,C54A U61C,0.44
17,C54A U61G,0.415
18,C54A U61A,0.512
19,C57U U61C,0.371
20,C57U U61G,0.463
21,C54A U69A,1.01
22,C54A U69C,1.04
23,U55A C63A,0.464
24,U55A C63G,0.438

row,Variant,self-cleavage
1,G56A C63U,0.943
2,G56A C63G,0.667
3,U55C C66A,0.342
4,U55C C66U,0.816
5,U55C C66G,0.437
6,C57G U69C,0.451
7,U55G U61C,0.293
8,U55G U61G,0.547
9,U55G G56A,0.963
10,C54A U67A,0.954
11,U53G U64C,0.764
12,U53G U64G,0.6
13,G56U G65C,0.506
14,C57G U62A,0.333
15,G56C G65U,0.512
16,G56A U62A,0.811
17,G56A U62C,0.732
18,G56A U62G,0.775
19,C54U U55A,0.924
20,C54U U55C,0.888
21,G56A A59U,0.735
22,G56A A59G,0.649
23,U55G C57G,0.39
24,U55G C57U,0.378

row,Variant,self-cleavage
1,C57U G68U,0.416
2,C57U G68A,0.395
3,U55A G58C,0.993
4,U55A G58U,0.988
5,G56U G68U,0.985
6,U55A U67C,0.906
7,C54A C63A,0.538
8,C54A C63G,0.445
9,C54A C63U,0.796
10,G56U C57G,0.384
11,U55C G68U,0.908
12,U55C G68C,0.977
13,C57U U69G,0.473
14,C57U U69A,0.478
15,G56A G65A,0.777
16,G56A G65C,0.508
17,G56A G65U,0.627
18,C54G U62A,0.59
19,G56U C66A,0.447
20,C57A G68A,0.367
21,C57A G68U,0.394
22,C57G A60G,0.294
23,C57G A60U,0.291
24,C57A U61C,0.273

row,Variant,self-cleavage
1,U55G G58A,0.644
2,U55G G58C,0.964
3,C57A C63G,0.404
4,C57A C63A,0.351
5,C57A C63U,0.408
6,C57A G65A,0.346
7,U55G A60C,0.296
8,G56C U61G,0.483
9,G56C U61A,0.554
10,G56C U61C,0.434
11,C54G A60G,0.541
12,C54G A60U,0.393
13,C54G A60C,0.282
14,C57A C66A,0.37
15,C57A C66G,0.373
16,C57A C66U,0.267
17,U55A U64G,0.613
18,U55A U64C,0.479
19,C57A U67G,0.445
20,C54G,0.951
21,C54U,1
22,C54A,0.944
23,C54A G65A,0.629
24,C54A G65U,0.519

row,Variant,self-cleavage
1,G56A C66G,0.744
2,G56A C66U,0.929
3,G56U U69A,1
4,G56U U69C,1.04
5,U55C C57A,0.367
6,U55G U69A,0.953
7,U55G U69G,1
8,C54A G68A,0.955
9,U55C U64G,0.531
10,U55C U64C,0.662
11,C54A U64C,0.483
12,C54A U64A,0.543
13,U55A A60U,0.298
14,U55A A60G,0.615
15,U55C U69A,0.971
16,U55C U69C,1.06
17,U55C U69G,1.01
18,C54A U55C,0.656
19,C54A U55G,0.796
20,C54A U55A,0.743
21,G56C U69A,0.874
22,G56C U69G,0.925
23,G56C U69C,1.02
24,C54U C63G,0.859

row,Variant,self-cleavage
1,C54U C63A,0.797
2,C57U G58C,0.451
3,C57U G58A,0.289
4,C57U G58U,0.42
5,U53G U55A,0.417
6,U53G U55C,0.468
7,C54U U69C,1.07
8,C54U U69G,1.06
9,C54U G68C,1.02
10,C54U G68U,1.06
11,C54U G68A,1.02
12,C54G U64G,0.533
13,C57U A59G,0.354
14,C57U A59U,0.256
15,C57G U67A,0.325
16,C57G U67C,0.428
17,C57G U67G,0.489
18,C54A U62C,0.538
19,C54A U62G,0.58
20,U55A C66A,0.561
21,U55A C66G,0.68
22,U55A C66U,0.944
23,U55C A60C,0.306

# Source: the RNAGym collection of RNA variant scans (doi:10.7554/elife.80360)
